We go through 29 sequences from the supplement of paper PMC10567573.

± gives the standard deviation.

The data set in a line: protein stability index of a GFP-peptide fusion (GPS, HEK-293T) (PSI 1-6); higher = more stable. The settings on record: c terminus: a fixed tail appended.
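Further: 24-mer peptide tiles fused after GFP, lentivirally expressed, FACS-sorted into six equal bins by GFP/DsRed ratio, decoded by Illumina sequencing, PSI is the read-weighted mean bin number.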

For the sequence RLLQEEDRRKKIARMGFNASSMLR [DCAF4], the protein stability index reads like this: (treatment: DMSO) 2.52 ± 0.22; (treatment: MLN4924 1 uM, 8 h) 2.57 ± 0.25.
RLQEVRESIRRAQVSQVKGAARLA [FCHSD1]: the protein stability index came to 3.17 ± 0.45 (treatment: DMSO) and 3.3 ± 0.28 (treatment: MLN4924 1 uM, 8 h).
The sequence RNPDQRKESLCISITVSKVDKDQP [FBXO34] showed a protein stability index (treatment: DMSO) of 3.6 ± 0.41 and a protein stability index (treatment: MLN4924 1 uM, 8 h) of 3.88 ± 0.24.
For RPQHSHSNKKRPSLDGRDPGNGTH [ELOA2], in that order: 4.94 ± 0.44 and 4.82 ± 0.39.
For RQDAKYLNMRSTYAKLAAVAVFFI [SEC22B], in that order: 2.35 ± 0.4 and 2.15 ± 0.25.
RQDSPSPDFYKQSSPNLQVSSDGT [PCDHGC5]: the protein stability index is, setting by setting: (treatment: DMSO) 4.86 ± 0.34; (treatment: MLN4924 1 uM, 8 h) 4.88 ± 0.18.
For RQVRDKTLKRGYFQKSLVLISKLP [DENND6A], in that order: 2.27 ± 0.15 and 2.36 ± 0.41.
Take RRLRGEQRGQEPLGPGALHFDLRD [TCF25]: the protein stability index is 4.24 ± 0.22 (treatment: DMSO) and 4.43 ± 0.21 (treatment: MLN4924 1 uM, 8 h).
In the case of RRPVNVPLDMFSEEIKFYELGEEA [KCNA1], the protein stability index runs as follows: (treatment: DMSO) 3.62 ± 0.33; (treatment: MLN4924 1 uM, 8 h) 3.84 ± 0.17.
For RRVDFCKDPSAIGKKQVPCFASML [CASP6], in that order: 2.43 ± 0.17 and 2.54 ± 0.23.
RSGAGVALLNDHIYVVGGFDGTAH [KLHL12]: the protein stability index came to 2.78 ± 0.43 (treatment: DMSO) and 2.37 ± 0.46 (treatment: MLN4924 1 uM, 8 h).
For RTVQSLEIDLDSMRNLKASLENSL [KRT18], in that order: 3.14 ± 0.45 and 3.25 ± 0.27.
For RVAAAAGSGPSPPGSPGHDRERQP [PI4K2A], in that order: 5.31 ± 0.5 and 5.42 ± 0.27.
In the case of RVRGRVGTIRPVRCPSSSLHMSQR [C22orf15], the protein stability index runs as follows: (treatment: DMSO) 3.14 ± 0.28; (treatment: MLN4924 1 uM, 8 h) 3.57 ± 0.19.
For RVSAMRDYRGPDCRYLNFTKGEEI [MIA2], in that order: 3.02 ± 0.58 and 3.26 ± 0.49.
For RWEPSGKAEPRLPDRVYIHPDSPA [TBX6], in that order: 3.98 ± 0.11 and 4.13 ± 0.18.
For RYHRFISFALYLAGFCMFVLSLVK [CDS1], in that order: 2.02 ± 0.21 and 2.08 ± 0.44.
As for RYIVNGSHEANKLQDMLDGFIKKF [EIF5], the protein stability index by setting is: (treatment: DMSO) 1.98 ± 0.23; (treatment: MLN4924 1 uM, 8 h) 2.17 ± 0.34.
Turning to SAAHEVELQRQKEAEKLERQLALP [NOP53], the protein stability index is, setting by setting: (treatment: DMSO) 4.99 ± 0.33; (treatment: MLN4924 1 uM, 8 h) 5.19 ± 0.23.
For SAAVRGHPRALPPDARPHRRPHEL [HAGHL], in that order: 4.404 ± 0.036 and 4.47 ± 0.13.
For SATLRSFEGLMGTIKSKVSGGKRA [TPD52L3], in that order: 3.51 ± 0.18 and 3.33 ± 0.56.
On to SCEEVAASSASLEPMWSGSTMRRM [EMID1], for which the protein stability index is, setting by setting: (treatment: DMSO) 4.09 ± 0.3; (treatment: MLN4924 1 uM, 8 h) 4.35 ± 0.18.
SCKACGYRGMLDTHHKLCTFILKN [EIF5]: the protein stability index is, setting by setting: (treatment: DMSO) 2.55 ± 0.35; (treatment: MLN4924 1 uM, 8 h) 2.77 ± 0.46.
Consider SCPNGMSAENGLEKSGFSQHQNKS [DLC1], for which the protein stability index was found to be 4.86 ± 0.17 (treatment: DMSO) and 5.06 ± 0.11 (treatment: MLN4924 1 uM, 8 h).
The sequence SDLNTNNLLFKPPVESHIQKNKKI [KMT2E] came in with a protein stability index (treatment: DMSO) of 4.31 ± 0.16 and a protein stability index (treatment: MLN4924 1 uM, 8 h) of 4.45 ± 0.39.
For SDSIAYDKGEKLLRCKLAAFYRLA [ADD1], in that order: 2.33 ± 0.49 and 2.34 ± 0.28.
For SDTEAQCEVMQEIVDQVLEEDFDS [INTS3], in that order: 5.56 ± 0.091 and 5.42 ± 0.34.
As for SEEDGEARTQMILLRRSVEGASSD [PHTF1], the protein stability index came out at 5.18 ± 0.21 (treatment: DMSO) and 5.23 ± 0.12 (treatment: MLN4924 1 uM, 8 h).
Regarding SEKGKPYVDIQGLTASTMEILLDF [KLHL12], the protein stability index reads like this: (treatment: DMSO) 2.06 ± 0.5; (treatment: MLN4924 1 uM, 8 h) 2.25 ± 0.6.
